# Reference: US7166568B1, “Compositions and methods to inhibit formation of the C5b-9 complex of complement” (Oklahoma Medical Research Foundation, priority 1998, dated 2007)
# Positions count from the first letter of the chain named. “Also recorded” adds a separate entry of the source. Non-standard residues stand in square brackets, D forms with d. No end group written: not given here. allyl‑C = allyl-modified terminal Cys; allyl‑K = allyl-modified terminal Lys
# T1: hu CD59 (Homo sapiens, UniProt P13987)
# T1 construct: human erythrocyte membrane glycoprotein CD59 were purified; from tissue; host or cells: human erythrocyte membranes
# T1 sequence (P13987 26-102): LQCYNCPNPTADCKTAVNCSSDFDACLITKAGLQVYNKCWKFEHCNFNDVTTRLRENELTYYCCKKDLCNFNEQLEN
# T2: human erythrocyte membrane glycoprotein CD59 (purified) (human, UniProt P13987 26-102, biotinylated with NHS-LC-biotin where used as biotin-CD59)
# T2 construct: Purified from human erythrocyte membranes; Used as biotin-CD59 in the microplate assay and put back into chicken erythrocytes (chE) for the hemolytic assays; it may hold a C-terminal GPI signal that the purified protein lacks; also called hu CD59; biotin-CD59
# T2 sequence: T1 sequence (P13987 26-102)
# B1: BSA-conjugated hu C9 peptide 359-384 (peptide)
# peptide: [allyl‑K]CLGYHLDVSLAFSEISVGAEFNKDD[allyl‑C]
# modifications: also: coupled to BSA
# notes: Synthetic peptide, custom ordered, adsorbed to microplates as a BSA conjugate; also called BSA-peptide conjugate
# B2: hu CD59: Human CD59 antigen, 18–21 kDa plasma membrane protein, inhibitor of the C5b-9 membrane attack complex; expressed recombinantly with TAG (protein, UniProt P13987 26-102, looked up)
# CD59 glycoprotein: T1 sequence (P13987 26-102)
# modifications: TAG epitope tag
# B3: rb CD59: rabbit CD59 cloned by the applicant (GenBank AF040387), expressed recombinantly with TAG on SV-T2 cells (protein)
# chain: EQKLISEEDLNSLMCYHCLLPSPNCSTVTNCTPNHDACLTAVSGPRVYRQCWRYEDCNFEFISNRLEENSLKYNCCRKDLCNGPEDDG
# B4: Ch6R: rabbit 42–58 substituted in hu CD59 (protein)
# chain: EQKLISEEDLNLQCYNCPNPTADCKTAVNCSSDFDACLITKAGLQVYNKCWKYEDCNFEFISNRLEENSLTYYCCKKDLCNFNEQLEN
# B5: Ch6: hu CD59 residues 42–58 substituted into rb CD59 (protein)
# chain: B3 chain with Y54F, D56H, E60N, F61D, I62V, S63T, N64T, E67R, S70E
# Biological target: T1, hu CD59
# Assay: Inhibitory function of CD59 towards recombinant C9 constructs (hemolysis of C5b-8 chE with or without membrane CD59)
# Assay type: cell-based
# Details: chE with hu C5b67 and rb C8, 0 or 750 ng/ml CD59; compared with hu C9 and rb C9
# Procedure: (§1) Analysis of the inhibitory function of CD 59 towards recombinant C9 constructs—Hemolytic activity of each C9 construct was assayed using as target cells chE that were reconstituted with purified hu CD59, as described by Husler, et al., (1995). chE were washed extensively and suspended in GVBS, and the membrane C5b67 complex assembled by mixing cells (1.4×10^9/ml) with C5b6 (13 μg/ml) followed by addition of C7 (1 μg/ml). After 10 min., the C5b67 chE were diluted to 1.4×10^8/ml in GVBE and incubated (10 min. 37° C.) with 0 or 750 ng/ml CD59. In each case, the final concentration of Nonidet P-40 was less than 0.002% (v/v). After washing in ice-cold GVBE, 2.8×10^8 of these cells were incubated (37° C.) in a total volume of 100 μl with 1 ng rb C8 plus, between zero and 50 ng of recombinant C9, serially diluted in Opti-MEM I. Hemolysis was determined after 30 minutes at 37° C., with correction for nonspecific lysis, determined in the absence of C9. In each experiment, the inhibitory activity of CD59 towards each recombinant C9 construct was determined from the reduction in complement lysis of those cells reconstituted with CD59, versus the identically-treated cells omitting CD59, measured at the midpoint of the C9 titration (i.e., 50% hemolysis). In order to directly compare results obtained in experiments performed on different days, data for each recombinant C9 construct were normalized to results obtained in each experiment with hu C9.
row,Molecule,sensitivity of the C9 construct to inhibition of MAC lytic activity by membrane CD59
1,Mutant hu C9: recombinant hu C9 expressed with Ala substitutions at Cys359 and Cys384,did not significantly affect
2,chimera #1: hu/rb C9 chimera R1-338H334–415R425–536,indistinguishable from hu C9 in its sensitivity to inhibition by CD59
3,chimera #2: hu/rb C9 chimera R1-363H359–538,unaffected
4,chimera #3: hu/rb C9 chimera H1-357R363–536,indistinguishable from rb C9 and only weakly inhibited by CD59
5,chimera #4: hu/rb C9 chimera R1-363H359–415R425–536,indistinguishable from hu C9
6,chimera #5: hu/rb C9 chimera R1-363H359–391R401–536,conferred full recognition by CD59
7,chimera #6: hu/rb C9 chimera R1-400H392–415R425–536,failed to confer any recognition by CD59
8,chimera #7: hu/rb C9 chimera R1-363H359–384R394–536,small but significant reduction in inhibition of MAC lytic activity by CD59
9,chimera #8: hu/rb C9 chimera H1-333R339–424H416–538,indistinguishable from rb C9 and virtually unaffected by the presence of membrane CD59; also recorded: completely eliminated hu-selective interaction with CD59
10,chimera #9: hu/rb C9 chimera H1-357R363–424H416–538,did not completely eliminate interaction with CD59
11,chimera #12: hu/rb C9 chimera H1-357R363–393H385–538,did not significantly diminish CD59's capacity to inhibit the lytic activity of C9

# Biological target: T2, human erythrocyte membrane glycoprotein …
# Assay: microplate assay: BSA-peptide coated wells, biotin-CD59 detected with Vectastain, OD 405 nm; corrected with a 20-fold excess of unlabeled CD59
# Details: not given
# Procedure: Briefly, the BSA-peptide conjugate was adsorbed to 96 well polyvinyl microplates by overnight coating at 5 µg/ml in 0.1 M sodium bicarbonate, pH 8.5. After blocking with 1% (w/v) BSA, wells were washed and incubated (4 hrs., 37° C.) with between 0.5 and 1 µg/ml biotin-CD59. After washing, the bound biotin-CD59 was detected with Vectastain (Vector Labs, Burlingame, Calif.), developed by addition of p-nitrophenyl phosphate (2 mg/ml) and optical density recorded at 405 nm (VMaxMicroplate Reader, Molecular Devices, Inc.). In all experiments, correction was made for background adsorption of biotin-CD59 to BSA-coated wells (no peptide) and for nonspecific binding of biotin-CD59 to peptide, determined in the presence of a 20-fold excess of unlabeled CD59. As a positive control for specific binding, comparison was made in each experiment to wells coated with 2 µg/ml hu C9.
row,Molecule,binding result
1,B1,binds

# Biological target: T3, C5b-9 assembled from rb C8 and C9 (Oryctolagus cuniculus, UniProt P48747+P98136)
# T3 construct: rabbit complement proteins C8 and C9 were purified; from tissue; host or cells: rabbit serum/plasma (C8, C9); C8-depleted human serum (C5b67)
# Assay: Assay of MAC inhibitory function of recombinant CD59 on transfected SV-T2 cells, rb C8 and C9
# Assay type: cell-based, rabbit
# Details: CD59 construct expressed on SV-T2 cells; hu C5b67, 4 μM rb C8 and 5 μM rb C9; BCECF dye release
# Procedure: Expression of CD59 constructs in SV-T2 cells—SV-T2 cells were transfected with hu, rb, or chimeric TAG-CD59 pcDNA3 by electroporation as previously described (Zhou, Q., Zhao, J., Hüsler, T., and Sims, P. J. (1996) Mol. Immunol. 33, 1127–1134). After 48 hr, stable transfectants were selected with DMEM complete medium containing 1 mg/ml geneticin for 10 days. If episomal replication in the transfected cells was desired, 8×10^6 SV-T2 cells were transfected with 120 μg plasmid DNA by electroporation using GENE PULSE™ (Bio-rad) at 360 V and 500 μF (Zhou, Q., Zhao, J., Hüsler, T., and Sims, P. J. (1996) Mol. Immunol. 33, 1127–1134). Geneticin-selected cells were stained with mAb 9E10 against TAG epitope followed by FITC-conjugated goat antibody against mouse IgG, and sorted by flow cytometry (FACStar Plus; Becton Dickinson). Individual clones were then obtained by limiting dilution in DMEM containing 0.5 mg/ml geneticin. […]
# Measurement of cell surface TAG-CD59—The cell surface expression of each TAG-CD59 construct in transfected SV-T2 cells was quantified by the binding at saturation of mAb 9E10 (against TAG epitope) as previously described by Zhou, Q., Zhao, J., Hüsler, T., and Sims, P. J. (1996) Mol. Immunol. […] The fluorescence was determined by flow cytometry (FACScan, Becton Dickinson) as described previously by Zhou, Q., Zhao, J., Hüsler, T., and Sims, P. J. (1996) Mol. Immunol. […]
row,Molecule,MAC-inhibitory function towards C5b-9 assembled with rb C8 and C9 (protection from lysis)
1,B2,protective effect of hu CD59 was not observed
2,B3,conferred a selective resistance to lysis by C5b-9 assembled from rb C8 and C9

# Biological target: T4, hu C5b-9 (hu C5b67 with hu C8 and hu C9) (Homo sapiens, UniProt P02748+P07357)
# T4 construct: human complement proteins (C5b7, C8 and C9) and rabbit complement proteins C8 and C9 were purified; from tissue; host or cells: human serum/plasma (C8 and C9 purified; C5b67 deposited from C8-depleted human serum)
# Assay: Assay of MAC inhibitory function of recombinant CD59 on transfected SV-T2 cells, hu C8 and C9
# Assay type: cell-based
# Details: CD59 construct expressed on SV-T2 cells; hu C5b67, 2 μM hu C8 and 5 μM hu C9; BCECF dye release
# Procedure: Expression of CD59 constructs in SV-T2 cells—SV-T2 cells were transfected with hu, rb, or chimeric TAG-CD59 pcDNA3 by electroporation as previously described (Zhou, Q., Zhao, J., Hüsler, T., and Sims, P. J. (1996) Mol. Immunol. 33, 1127–1134). After 48 hr, stable transfectants were selected with DMEM complete medium containing 1 mg/ml geneticin for 10 days. If episomal replication in the transfected cells was desired, 8×10^6 SV-T2 cells were transfected with 120 μg plasmid DNA by electroporation using GENE PULSE™ (Bio-rad) at 360 V and 500 μF (Zhou, Q., Zhao, J., Hüsler, T., and Sims, P. J. (1996) Mol. Immunol. 33, 1127–1134). Geneticin-selected cells were stained with mAb 9E10 against TAG epitope followed by FITC-conjugated goat antibody against mouse IgG, and sorted by flow cytometry (FACStar Plus; Becton Dickinson). Individual clones were then obtained by limiting dilution in DMEM containing 0.5 mg/ml geneticin. Comparison was made to clonal cell lines derived by transfection with pcDNA3, lacking insert (vector-only controls).
# Measurement of cell surface TAG-CD59—The cell surface expression of each TAG-CD59 construct in transfected SV-T2 cells was quantified by the binding at saturation of mAb 9E10 (against TAG epitope) as previously described by Zhou, Q., Zhao, J., Hüsler, T., and Sims, P. J. (1996) Mol. Immunol. 33, 1127–1134. Following growth to near confluence, cells were detached and incubated for 30 min at 23° C. with mAb 9E10 (100 μg/ml) in HBSS containing 1% BSA. After washing with HBSS containing 1% BSA, the cells were incubated (20 min at 23° C.) with FITC conjugated goat anti-mouse IgG at a final concentration of 10 μg/ml. The fluorescence was determined by flow cytometry (FACScan, Becton Dickinson) as described previously by Zhou, Q., Zhao, J., Hüsler, T., and Sims, P. J. (1996) Mol. Immunol. 33, 1127–1134.
# Assay of MAC inhibitory function—The complement-inhibitory activity of recombinant CD59 expressed on the transfected SV-T2 cells was evaluated by minor modification of methods previously described (Zhou, Q., Zhao, J., Hüsler, T., and Sims, P. J. (1996) Mol. Immunol. 33, 1127–1134, and Zhao, J., Rollins, S. A., Maher, S. E., Bothwell, A. L., and Sims, P. J. (1991) J. Biol. Chem. 266, 13418–13422). For cell clones expressing each chimeric CD59 construct, huC5b67 was deposited on the plasma membrane and susceptibility to the lytic activity of either hu C8 and C9 or rb C8 and C9 was measured and compared to identically-treated clones expressing wild-type hu or rb CD59. […] MAC-mediated cell lysis was determined from the measured release of BCECF dye from the cytoplasm, with correction for non-specific dye leak from matched controls omitting C8 and C9, as previously described by Zhou, Q., Zhao, J., Hüsler, T., and Sims, P. J. (1996) Mol. Immunol. […]
row,Molecule,MAC-inhibitory function towards hu C5b-9 (protection from lysis)
1,B2,nearly completely protected from lysis by hu C5b-9
2,B3,virtually no inhibition of the lytic action of MAC was observed

# Same assay, conditions: SV-T2 clones; hu versus rb C8 and C9 used to assemble the C5b-9 complex
row,Molecule,species-selective complement inhibitory function compared with full-length hu or rb CD59
1,B4,functionally indistinguishable from rb CD59
2,B5,functionally indistinguishable from native hu CD59

# Test system: chE containing membrane C5b-8
# Assay: Hemolytic titration of recombinant C9 constructs against chE containing membrane C5b-8
# Assay type: cell-based, chicken
# Details: not given
# Procedure: as §1, with “In order to directly compare results obtained in experiments performed on different days, data for each recombinant C9 construct were normalized to results obtained in each experiment with hu C9.” left out
row,Molecule,hemolytic activity of the C9 construct
1,Mutant hu C9: recombinant hu C9 expressed with Ala substitutions at Cys359 and Cys384,did not significantly affect
